Measurements taken from PMC6460258.

How the values were obtained:
[1] = biological target: GST-tagged Lcl (recombinant full length Lcl, 18 repeats) (Legionella pneumophila); test: SPR; Biacore X100; […] (100 nM) […]
[2] = biological target: His-tagged full length Lcl (Legionella collagen-like protein) with 18 repeats (Legionella pneumophila serogroup 1, strain LU1536); test: SEC; […], PBS, 0.5 ml/min; […]

Substance: His-tagged Lcl lacking the collagenous repeat domain (Lcl[change]) (domain or fragment)
- Kd [1]: 1040 nM

Substance: His-tagged Lcl lacking the C-terminal domain (Lcl[change]) (domain or fragment)
- Kd [1]: 123 nM

Substance: His-tagged full length Lcl (Legionella collagen-like protein) with 18 repeats (natural protein)
- stoichiometry N [2]: 3
- Kd [1]: 28.7 nM
